One molecule from article PMC4449551, “The dominant negative ARM domain uncovers multiple functions of PUB13 in Arabidopsis immunity, flowering, and senescence” (Journal of Experimental Botany, 2015) can be followed below.

This test deals with T1, GST–PUB13 (Arabidopsis, UniProt Q9SNC6 1-660).
T1 construct: PUB13, plant U-box E3 ubiquitin ligase of Arabidopsis, full length (UND, U-box and ARM repeat domain); also called full-length PUB13; source: E. coli BL21, purified (glutathione agarose)
T1 sequence (looked up): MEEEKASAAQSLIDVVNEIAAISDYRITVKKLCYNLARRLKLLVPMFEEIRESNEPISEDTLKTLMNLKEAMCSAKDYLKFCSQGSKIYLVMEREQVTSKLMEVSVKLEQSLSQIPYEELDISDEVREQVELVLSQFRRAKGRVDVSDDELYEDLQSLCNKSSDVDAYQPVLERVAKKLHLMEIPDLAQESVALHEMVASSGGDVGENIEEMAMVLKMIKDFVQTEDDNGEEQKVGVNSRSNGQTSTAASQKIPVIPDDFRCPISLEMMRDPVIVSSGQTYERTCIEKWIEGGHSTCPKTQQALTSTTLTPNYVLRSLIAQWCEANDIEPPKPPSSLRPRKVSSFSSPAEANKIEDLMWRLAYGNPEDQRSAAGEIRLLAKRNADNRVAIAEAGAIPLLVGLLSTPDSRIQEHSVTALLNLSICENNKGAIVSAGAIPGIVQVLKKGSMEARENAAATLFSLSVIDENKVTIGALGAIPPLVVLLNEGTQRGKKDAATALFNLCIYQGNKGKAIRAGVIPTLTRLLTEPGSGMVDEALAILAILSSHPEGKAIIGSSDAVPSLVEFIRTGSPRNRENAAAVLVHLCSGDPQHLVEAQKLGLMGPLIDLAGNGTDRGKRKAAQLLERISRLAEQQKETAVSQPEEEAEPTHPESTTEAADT
Briefly: pull-down; About 10 μg of MBP or MBP fusion on amylose beads as bait, 10 μg of GST-tagged protein in 1 ml pull-down buffer (20mM TRIS-HCl pH 7.5, 1mM β-mercaptoethanol, 3mM EDTA, 150mM NaCl, 1% NP-40), 1h at 4 °C; western blot with α-GST (Fig. 1B, 1F). Particulars: both partners purified. On the technique in general: Immunoblotting shows a protein as a band on a membrane.

B1: MBP–BAK1CD (domain or fragment, Arabidopsis, UniProt Q94F62 247-615, looked up)
chain: AWWRRKKPQDHFFDVPAEEDPEVHLGQLKRFSLRELQVASDNFSNKNILGRGGFGKVYKGRLADGTLVAVKRLKEERTQGGELQFQTEVEMISMAVHRNLLRLRGFCMTPTERLLVYPYMANGSVASCLRERPESQPPLDWPKRQRIALGSARGLAYLHDHCDPKIIHRDVKAANILLDEEFEAVVGDFGLAKLMDYKDTHVTTAVRGTIGHIAPEYLSTGKSSEKTDVFGYGVMLLELITGQRAFDLARLANDDDVMLLDWVKGLLKEKKLEALVDVDLQGNYKDEEVEQLIQVALLCTQSSPMERPKMSEVVRMLEGDGLAERWEEWQKEEMFRQDFNYPTHHPAVSGWIIGDSTSQIENEYPSGPR
notes: BAK1 (BRI1-associated kinase), receptor-like kinase of Arabidopsis, cytoplasmic domain; also called cytoplasmic domain of BAK1; BAK1 cytosolic domain; source: E. coli BL21, purified (amylose)
As for B1, the binding result was “binds”.
